Tests used:
[1] = tested on: KIR3DL2-expressing Sézary Syndrome cell line (Hut 78); test: In vitro cellular cytotoxicity (ADCC) assay with allogeneic NK cells and Hut 78 cells, with increasing concentrations of anti-KIR3DL2 antibody; type: cell-based; conditions: chemotherapeutic agent added to lacutamab, allogeneic NK cells, FIG. 1
Protocol: Consequently, we sought to evaluate whether chemotherapeutic agents affect the NK cell-mediated ADCC activity of humanized 2B12 antibody lacutamab having human IgG1 isotype and the VH and VL amino acid sequences shown in SEQ ID NOS: 49 and 44, respectively. Chemotherapeutic agents were added, alone or in combination, to an in vitro cellular cytotoxicity (ADCC) assay with allogeneic NK cells and KIR3DL2-expressing Sézary Syndrome cell line (Hut 78), in presence of increasing concentrations of the anti-KIR3DL2 antibody.

RAJI-KIR3DL2 cells = test: KIR3DL2 surface expression by flow cytometry on RAJI-KIR3DL2 cells; type: cell-based; conditions: RAJI-KIR3DL2, same experimental conditions
Protocol: (§1) RAJI-KIR3DL2 (48 hour incubation) (FIG. 2, left hand panel) or Hut 78 ([…]; 24 hour incubation (FIG. 2, right hand panel) were incubated with ascending doses of gemcitabine and oxaliplatin. Median intensity of fluorescence of KIR3DL2 on tumor cell line surface was analyzed by flow cytometry.
(§2) Briefly, Hut78 cells (Sezary Syndrome cell line) or RAJI-KIR3DL2 cells (RAJI B-NHL cell line transfected with human KIR3DL2 were incubated with ascending doses of gemcitabine and oxaliplatin. Median intensity of fluorescence of KIR3DL2 on tumor cell line surface was analyzed by flow cytometry.

Hut78 cells = test: KIR3DL2 surface expression by flow cytometry on Hut78 cells; type: cell-based; conditions: Hut78 / TCL cells
Protocol: as §1, §2

RAJI-KIR3DL2 = type: in vivo; conditions: twice a week; antibody 0.3 μg per injection, gemcitabine 50 mg/kg, oxaliplatin 5 mg/kg; FIG. 3
Description: A xenograft model in the CB17-SCID mouse whereby the immunocompromised mouse strain that retains fully functional NK cells and macrophages. […] The B-NHL cell line RAJI was transfected to stably express KIR3DL2 (RAJI-KIR3DL2), and the transfectants were inoculated (5×10^6 cells) to the SCID mice by IV thereby providing a disseminated tumor model. Initially, individual doses of gemcitabine and oxaliplatin were established in this xenograft model.

KIR3DL2 [2] = target: T1, KIR3DL2 (Homo sapiens, UniProt P43630); parameters: host or cells: tumor cells (not further named); conditions: into cells / tumor cells; cited from earlier work
T1 sequence (P43630 22-455): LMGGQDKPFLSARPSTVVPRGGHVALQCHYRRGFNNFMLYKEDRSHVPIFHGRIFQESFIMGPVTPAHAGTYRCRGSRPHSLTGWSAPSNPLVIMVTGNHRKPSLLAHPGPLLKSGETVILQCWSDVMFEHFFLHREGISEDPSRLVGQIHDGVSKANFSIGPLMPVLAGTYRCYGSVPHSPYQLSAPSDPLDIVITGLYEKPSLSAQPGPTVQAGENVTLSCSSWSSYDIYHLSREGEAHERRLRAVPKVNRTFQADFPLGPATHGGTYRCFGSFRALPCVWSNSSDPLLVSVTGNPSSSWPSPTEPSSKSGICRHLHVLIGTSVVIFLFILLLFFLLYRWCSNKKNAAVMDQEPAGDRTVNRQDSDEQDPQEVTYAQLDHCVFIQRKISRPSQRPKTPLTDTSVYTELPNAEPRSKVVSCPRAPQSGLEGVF

refractory SS patients = test: Clinical trials of single agent IPH4102 in refractory Sézary Syndrome patients; type: in vivo, human; conditions: repeated administrations of single agent
Description: Antibodies that specifically bind to KIR3DL2 are well known in the art. Innate Pharma for example have described numerous anti-KIR3DL2 antibodies directed to a range of different epitopes on KIR3DL2, e.g., antibodies 15C11, 19H12, 22B2, 18B10, 12B11, 13H1, 10F6, 2B12, 18C6, 9E10, 10G5, 13H1, 5H1, 1E2, 1C3 and 20E9 described in PCT publication nos. WO2014/044681 and WO2014/044686. […] These encouraging results, moreover with few side effects and the ability to deplete malignant KIR3DL2-expressing cells without causing the depletion of healthy KIR3DL2-expressing NK and T cells provides an important advance in treating TCLs.

KIR3DL2 [3] = target: T1, KIR3DL2; conditions: cited from earlier work
human KIR3DL1 = human KIR3DL1 (Homo sapiens, UniProt P43629); conditions: cited from earlier work
Sequence of human KIR3DL1 (P43629 22-444): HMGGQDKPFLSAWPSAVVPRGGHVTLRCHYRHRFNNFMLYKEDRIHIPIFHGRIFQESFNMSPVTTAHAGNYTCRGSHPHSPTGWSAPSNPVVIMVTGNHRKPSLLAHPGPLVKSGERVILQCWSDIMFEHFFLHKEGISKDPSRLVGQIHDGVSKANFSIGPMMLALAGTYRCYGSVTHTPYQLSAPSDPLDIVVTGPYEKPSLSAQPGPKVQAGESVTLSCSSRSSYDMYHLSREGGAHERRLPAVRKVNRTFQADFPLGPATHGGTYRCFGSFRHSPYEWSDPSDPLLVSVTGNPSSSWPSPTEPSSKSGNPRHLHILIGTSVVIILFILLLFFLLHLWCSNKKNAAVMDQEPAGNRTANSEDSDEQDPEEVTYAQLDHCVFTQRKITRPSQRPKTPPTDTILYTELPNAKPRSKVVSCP

## Nc1ccn([C@@H]2O[C@H](CO)[C@@H](O)C2(F)F)c(=O)n1 [gemcitabine]
[1]
  effect on anti-KIR3DL2 antibody-induced ADCC / anti-tumor activity against HUT78: enhanced

## O=P1(N(CCCl)CCCl)NCCCO1 (stereo not shown) [cyclophosphamide]
RAJI-KIR3DL2 cells
  effect on KIR3DL2 expression: did not increase KIR3DL2 expression
Hut78 cells
  effect on KIR3DL2 expression: did not increase KIR3DL2 expression

## O=C1[O][Pt]2([NH][C@@H]3CCCC[C@H]3[NH]2)[O]C1=O [oxaliplatin]
[1]
  effect on anti-KIR3DL2 antibody-induced ADCC / anti-tumor activity against HUT78: enhanced
RAJI-KIR3DL2
  anti-tumor activity in vivo: very limited, if any, anti-tumor effect

B1: 12B11: anti-KIR3DL2 antibody, VH SEQ ID NO: 16, VL SEQ ID NO: 17 (antibody, listed as Mus musculus, V domains shown)
VH: QLVQSGPELKNPGETVKISCKASGYTFTNYGMNWVKQAPGKGLKWMGWINTYTGEPTYADDFKGRFAFSLETSASTAYLQINNLKNEDTATYFCAHGPWLAYWGQGTLVTVS
VL: DIKMTQSPSSMYASLGERVTITCKASQDINVYLSWFQQKPGKSPKTLIYRAIRLVDGVPSRFSGSGSGQDYSLTISSLDYEDMGIYYCLQYDELPYTFGGGTKLEIE
KIR3DL2 [2]
  internalization via KIR3DL2: capable of being internalized

B2: 19H12: anti-KIR3DL2 antibody, VH SEQ ID NO: 5, VL SEQ ID NO: 6 (antibody, V domains shown)
VH: QIQLVQSGPELKKPGETVKISCKASGYTFTNFGMNWVKQAPGKGLKWMGWINTYTGEPTYADDFKGRFAFSLETSASTAYLQINNLKNEDMATYFCARNGNFGYYFDYWGQGTTLTVSS
VL: DVLMTQTPLSLPVSLGDQASFSCRSSQNIVHSNGNTYLEWYLQKPGQSPSLLIYKVSNRFSGVPDRFSGSGSGTDFTLKITRVEAEDLGVYYCFQGSHVPFTFGSGTKLEIK
modifications: mus musculus
KIR3DL2 [2]
  internalization via KIR3DL2: capable of being internalized

B3: IPH4102: humanized 2B12 anti-KIR3DL2 antibody, human IgG1, VH SEQ ID NO: 49 and VL SEQ ID NO: 44 (antibody, V domains shown)
VH: QIQLVQSGSELKKPGASVKVSCKASGYTFTTAGMQWVRQAPGQGLEWIGWINSHSGVPKYAEDFKGRFVFSLDTSVSTAYLQISSLKAEDTAVYFCARGGDEGVMDYWGQGTTVTVSS
VL: DIQMTQSPSFLSASVGDRVTITCKASQDVSTAVAWYQQKPGQPPKLLIYWTSTRHTGVPDRFSGSGSGTDYTLTISSLQAEDVAVYYCQQHYSTPWTFGGGTKVEIK
Refractory SS patients
  median duration of response (DoR): 13.8 months
  median progression-free survival (PFS): 11.7 months
  overall response rate (ORR): 42.9%

B4: 2B12: anti-KIR3DL2 antibody, VH SEQ ID NO: 32, VL SEQ ID NO: 33 (antibody, listed as Mus musculus, V domains shown)
VH: QIQLVQSGPELKKPGETVRISCKASGYTFTTAGMQWVQKTPGKGLKWIGWINSHSGVPKYAEDFKGRFAFSLETSASTAYLQISTLKNEDTATYFCARGGDEGVMDYWGQGTSVTVS
VL: DIVMTQSHKFMSTSLGDRVSFTCKASQDVSTAVAWYQQKPGQSPKLLIYWTSTRHTGVPDRFTGSGSGTDYTLTISSVQAEDLALYYCQQHYSTPWTFGGGTKLEIK
KIR3DL2 [2]
  internalization via KIR3DL2: do not induce any KIR3DL2 internalization

B5: AZ158: antibody binding human KIR3DL2 and KIR3DL1, VH SEQ ID NO: 3, VL SEQ ID NO: 4 (antibody, V domains shown)
VH: QVQLKESGPGLVAPSQSLSITCTVSGFSLTSFGVHWVRQPPGKGLEWLGVIWAGGSTNYNSALMSRLSISKDNSKSQVFLKMNSLQNDDTAMYYCARGNSNHYVSSFYYFDYWGQGTTLTVSS
VL: DIQMTQSPSSLSASLGGKVTITCKASQDINKYIAWYQHKPGKGPRLLIHYTSTLQPGIPSRFSGSGSGRDYSFSISNLEPEDITTYYCLQYDNLWTFGGGTKLEIK
modifications: mus musculus
KIR3DL2 [3]
  binding to KIR3DL2: binds
Human KIR3DL1
  binding to KIR3DL1: binds
